Laboratory results reported in patent US20090269356.

Target: complement C5 (full length) (Homo sapiens) (UniProt P01031)
Experiment: filter
Settings: dRmY: A,G deoxy; C,U 2'-OMe; dot blot, DPBS

Chain of complement C5 (full length) (Homo sapiens) (P01031 whole entry): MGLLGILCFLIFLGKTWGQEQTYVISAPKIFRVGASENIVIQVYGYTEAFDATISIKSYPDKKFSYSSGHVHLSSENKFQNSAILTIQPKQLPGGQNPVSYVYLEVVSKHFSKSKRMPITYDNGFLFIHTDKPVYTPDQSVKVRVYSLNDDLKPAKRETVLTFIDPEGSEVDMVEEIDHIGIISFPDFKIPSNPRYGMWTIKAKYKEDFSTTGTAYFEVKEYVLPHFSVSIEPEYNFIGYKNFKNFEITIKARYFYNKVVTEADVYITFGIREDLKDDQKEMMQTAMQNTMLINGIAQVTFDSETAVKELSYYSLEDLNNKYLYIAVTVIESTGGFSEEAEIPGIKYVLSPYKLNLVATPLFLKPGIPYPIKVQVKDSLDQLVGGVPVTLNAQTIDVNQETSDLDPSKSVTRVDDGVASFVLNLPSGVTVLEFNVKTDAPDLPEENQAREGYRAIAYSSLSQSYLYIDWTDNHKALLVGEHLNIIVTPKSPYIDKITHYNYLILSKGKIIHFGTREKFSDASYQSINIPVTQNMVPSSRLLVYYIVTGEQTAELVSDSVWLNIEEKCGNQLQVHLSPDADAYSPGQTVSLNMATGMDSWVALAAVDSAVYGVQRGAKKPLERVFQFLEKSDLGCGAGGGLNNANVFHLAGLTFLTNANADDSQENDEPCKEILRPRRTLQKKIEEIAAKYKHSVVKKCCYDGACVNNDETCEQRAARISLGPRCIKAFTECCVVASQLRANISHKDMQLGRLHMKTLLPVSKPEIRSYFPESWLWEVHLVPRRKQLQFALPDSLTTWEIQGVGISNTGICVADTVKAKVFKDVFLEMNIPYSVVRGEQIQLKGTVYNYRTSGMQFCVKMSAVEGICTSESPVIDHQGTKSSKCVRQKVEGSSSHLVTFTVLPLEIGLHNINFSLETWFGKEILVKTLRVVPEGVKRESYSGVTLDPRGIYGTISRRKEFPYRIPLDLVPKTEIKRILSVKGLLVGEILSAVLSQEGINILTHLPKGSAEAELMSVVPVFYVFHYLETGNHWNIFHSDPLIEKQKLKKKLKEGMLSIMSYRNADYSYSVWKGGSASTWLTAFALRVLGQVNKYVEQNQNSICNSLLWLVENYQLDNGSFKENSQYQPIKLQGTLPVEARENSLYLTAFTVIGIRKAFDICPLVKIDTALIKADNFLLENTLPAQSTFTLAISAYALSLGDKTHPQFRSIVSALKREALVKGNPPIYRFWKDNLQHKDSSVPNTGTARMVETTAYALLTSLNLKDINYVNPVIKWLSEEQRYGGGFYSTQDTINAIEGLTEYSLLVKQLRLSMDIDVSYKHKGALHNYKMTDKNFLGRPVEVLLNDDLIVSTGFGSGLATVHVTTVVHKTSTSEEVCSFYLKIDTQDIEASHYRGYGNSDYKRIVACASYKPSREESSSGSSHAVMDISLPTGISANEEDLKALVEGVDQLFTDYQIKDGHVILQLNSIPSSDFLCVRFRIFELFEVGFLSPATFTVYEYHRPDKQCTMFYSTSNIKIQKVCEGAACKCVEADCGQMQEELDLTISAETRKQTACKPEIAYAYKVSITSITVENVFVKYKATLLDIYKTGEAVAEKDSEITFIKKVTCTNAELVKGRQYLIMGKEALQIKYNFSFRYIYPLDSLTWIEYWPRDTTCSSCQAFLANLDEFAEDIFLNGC

“GGGAGAGGAGAGAACGUUCUACCUUGGUUUGGCNCAGGCAUANAUACGCACGGGUCGAUCGGUUACGACUAGCAU [doped clone SEQ 96]” was tested, and the Kd was 84 nM.
